Series [1] concerns HeLa Kyoto. Put plainly: solubility in G1/S (NP-40 vs SDS abundance) (log2 ratio); higher = more soluble. As to conditions: cell cycle stage: G1/S.
Series [2] deals with HeLa Kyoto. As to the kind of experiment: melting temperature (median over replicates), in situ; higher = more thermally stable.
Series [3] relates to HeLa Kyoto. Put plainly: solubility change mitosis vs G1/S (difference of NP-40 vs SDS log2 ratios) (log2 ratio difference); higher = more soluble in mitosis.
In series [4] the test system is HeLa Kyoto. As to the kind of experiment: thermal stability score vs G1/S (z-score of summed log2 fold changes over temperatures); higher = more thermally stable than in G1/S.
Where [5] appears, read: cell cycle stage: early G1 (4.5 h after nocodazole release).

The record followed here is the supplement of paper PMC5998384.
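Wherever melting temperature (median over replicates), in situ is given: HeLa Kyoto cells synchronized by double thymidine or nocodazole block, proteins quantified by TMT10plex mass spectrometry, three independent biological replicates.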
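Wherever solubility change mitosis vs G1/S (difference of NP-40 vs SDS log2 ratios) is given: synchronized HeLa Kyoto cells (double thymidine block for G1/S, nocodazole release for mitosis), protein amounts in NP-40 versus SDS lysates quantified by mass spectrometry, three biological replicates.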
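Wherever solubility in G1/S (NP-40 vs SDS abundance) is given: HeLa Kyoto cells arrested at G1/S by double thymidine block, proteins quantified by TMT10plex mass spectrometry in mild NP-40 versus SDS extracts, three biological replicates.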
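Wherever thermal stability score vs G1/S (z-score of summed log2 fold changes over temperatures) is given: synchronized HeLa Kyoto cells, proteins quantified by TMT10plex mass spectrometry, three biological replicates, mitosis taken 0.5 h after nocodazole release, G1/S directly after double thymidine block.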

On to “MAAAFEASGALAAVATAMPAEHVAVQVPAPEPTPGPVRILRTAQDLSSPRTRTGDVLLAEPADFESLLLSRPVLEGLRAAGFERPSPVQLKAIPLGRCGLDLIVQAKSGTGKTCVFSTIALDSLVLENLSTQILILAPTREIAVQIHSVITAIGIKMEGLECHVFIGGTPLSQDKTRLKKCHIAVGSPGRIKQLIELDYLNPGSIRLFILDEADKLLEEGSFQEQINWIYSSLPASKQMLAVSATYPEFLANALTKYMRDPTFVRLNSSDPSLIGLKQYYKVVNSYPLAHKVFEEKTQHLQELFSRIPFNQALVFSNLHSRAQHLADILSSKGFPAECISGNMNQNQRLDAMAKLKHFHCRVLISTDLTSRGIDAEKVNLVVNLDVPLDWETYMHRIGRAGRFGTLGLTVTYCCRGEEENMMMRIAQKCNINLLPLPDPIPSGLMEECVDWDVEVKAAVHTYGIASVPNQPLKKQIQKIERTLQIQKAHGDHMASSRNNSVSGLSVKSKNNTKQKLPVKSHSECGIIEKATSPKELGCDRQSEEQMKNSVQTPVENSTNSQHQVKEALPVSLPQIPCLSSFKIHQPYTLTFAELVEDYEHYIKEGLEKPVEIIRHYTGPGDQTVNPQNGFVRNKVIEQRVPVLASSSQSGDSESDSDSYSSRTSSQSKGNKSYLEGSSDNQLKDSESTPVDDRISLEQPPNGSDTPNPEKYQESPGIQMKTRLKEGASQRAKQSRRNLPRRSSFRLQTEAQEDDWYDCHREIRLSFSDTYQDYEEYWRAYYRAWQEYYAAASHSYYWNAQRHPSWMAAYHMNTIYLQEMMHSNQ [DDX20]”, for which, in the series with HeLa Kyoto [1], the “solubility in G1/S (log2)” value was -0.119. For the same sequence, the melting temperature in the series with HeLa Kyoto [2] (cell cycle stage: G1/S) amounted to 47.5 °C; in the series with HeLa Kyoto [2] (cell cycle stage: mitosis), 48.8 °C. Also, in the series with HeLa Kyoto [3], the “solubility change mitosis (log2)” value was 0.084. In addition, the thermal stability score in the series on HeLa Kyoto [4] (setting [5]) was -0.14; with HeLa Kyoto [4] (cell cycle stage: mitosis), 3.36.

Turning to “MAAAGAFRLRRAASALLLRSPRLPARELSAPARLYHKKVVDHYENPRNVGSLDKTSKNVGTGLVGAPACGDVMKLQIQVDEKGKIVDARFKTFGCGSAIASSSLATEWVKGKTVEEALTIKNTDIAKELCLPPVKLHCSMLAEDAIKAALADYKLKQEPKKGEAEKK [ISCU]”, the “solubility in G1/S (log2)” value with HeLa Kyoto [1] was 0.467. The figures for the melting temperature in the series on HeLa Kyoto [2] (cell cycle stage: G1/S) and in the series on HeLa Kyoto [2] (cell cycle stage: mitosis) were 53.3 °C and 54 °C, respectively. In the series with HeLa Kyoto [3], the “solubility change mitosis (log2)” value stood at 0.0125. The thermal stability score in the series on HeLa Kyoto [4] (setting [5]) is -1.67; with HeLa Kyoto [4] (cell cycle stage: mitosis) it was -2.36.

Take “MAAALRVAAVGARLSVLASGLRAAVRSLCSQATSVNERIENKRRTALLGGGQRRIDAQHKRGKLTARERISLLLDPGSFVESDMFVEHRCADFGMAADKNKFPGDSVVTGRGRINGRLVYVFSQDFTVFGGSLSGAHAQKICKIMDQAITVGAPVIGLNDSGGARIQEGVESLAGYADIFLRNVTASGVIPQISLIMGPCAGGAVYSPALTDFTFMVKDTSYLFITGPDVVKSVTNEDVTQEELGGAKTHTTMSGVAHRAFENDVDALCNLRDFFNYLPLSSQDPAPVRECHDPSDRLVPELDTIVPLESTKAYNMVDIIHSVVDEREFFEIMPNYAKNIIVGFARMNGRTVGIVGNQPKVASGCLDINSSVKGARFVRFCDAFNIPLITFVDVPGFLPGTAQEYGGIIRHGAKLLYAFAEATVPKVTVITRKAYGGAYDVMSSKHLCGDTNYAWPTAEIAVMGAKGAVEIIFKGHENVEAAQAEYIEKFANPFPAAVRGFVDDIIQPSSTRARICCDLDVLASKKVQRPWRKHANIPL [PCCB]”: the “solubility in G1/S (log2)” value in the series with HeLa Kyoto [1] was -0.114. In addition, the melting temperature is 54.3 °C with HeLa Kyoto [2] (cell cycle stage: G1/S) and 54.9 °C in the series on HeLa Kyoto [2] (cell cycle stage: mitosis). Further, the “solubility change mitosis (log2)” value in the series on HeLa Kyoto [3] is -0.114. Also, the thermal stability score was -1.53 in the series with HeLa Kyoto [4] (setting [5]) and -1.91 in the series on HeLa Kyoto [4] (cell cycle stage: mitosis).

As for “MAAALWGFFPVLLLLLLSGDVQSSEVPGAAAEGSGGSGVGIGDRFKIEGRAVVPGVKPQDWISAARVLVDGEEHVGFLKTDGSFVVHDIPSGSYVVEVVSPAYRFDPVRVDITSKGKMRARYVNYIKTSEVVRLPYPLQMKSSGPPSYFIKRESWGWTDFLMNPMVMMMVLPLLIFVLLPKVVNTSDPDMRREMEQSMNMLNSNHELPDVSEFMTRLFSSKSSGKSSSGSSKTGKSGAGKRR [EMC7]”, the “solubility in G1/S (log2)” value in the series on HeLa Kyoto [1] came out at 0.424. For the same sequence, the figures for the melting temperature with HeLa Kyoto [2] (cell cycle stage: G1/S) and in the series with HeLa Kyoto [2] (cell cycle stage: mitosis) were 54.4 °C and 54.1 °C, respectively. In the series on HeLa Kyoto [3], the “solubility change mitosis (log2)” value amounted to 0.0594. Besides, the thermal stability score in the series on HeLa Kyoto [4] (setting [5]) was -1.44; in the series on HeLa Kyoto [4] (cell cycle stage: mitosis), -0.331.

“MAAAPPLSKAEYLKRYLSGADAGVDRGSESGRKRRKKRPKPGGAGGKGMRIVDDDVSWTAISTTKLEKEEEEDDGDLPVVAEFVDERPEEVKQMEAFRSSAKWKLLGGHNEDLPSNRHFRHDTPDSSPRRVRHGTPDPSPRKDRHDTPDPSPRRARHDTPDPSPLRGARHDSDTSPPRRIRHDSSDTSPPRRARHDSPDPSPPRRPQHNSSGASPRRVRHDSPDPSPPRRARHGSSDISSPRRVHNNSPDTSRRTLGSSDTQQLRRARHDSPDLAPNVTYSLPRTKSGKAPERASSKTSPHWKESGASHLSFPKNSKYEYDPDISPPRKKQAKSHFGDKKQLDSKGDCQKATDSDLSSPRHKQSPGHQDSDSDLSPPRNRPRHRSSDSDLSPPRRRQRTKSSDSDLSPPRRSQPPGKKAAHMYSGAKTGLVLTDIQREQQELKEQDQETMAFEAEFQYAETVFRDKSGRKRNLKLERLEQRRKAEKDSERDELYAQWGKGLAQSRQQQQNVEDAMKEMQKPLARYIDDEDLDRMLREQEREGDPMANFIKKNKAKENKNKKVRPRYSGPAPPPNRFNIWPGYRWDGVDRSNGFEQKRFARLASKKAVEELAYKWSVEDM [BUD13]”: the “solubility in G1/S (log2)” value with HeLa Kyoto [1] was -0.884. Also, the melting temperature with HeLa Kyoto [2] (cell cycle stage: G1/S) was 52.9 °C; in the series with HeLa Kyoto [2] (cell cycle stage: mitosis), 53 °C. Moreover, the “solubility change mitosis (log2)” value with HeLa Kyoto [3] came to 0.878. The values for the thermal stability score with HeLa Kyoto [4] (setting [5]) and with HeLa Kyoto [4] (cell cycle stage: mitosis) were 0.0865 and -0.687, respectively.

As to “MAAARHSTLDFMLGAKADGETILKGLQSIFQEQGMAESVHTWQDHGYLATYTNKNGSFANLRIYPHGLVLLDLQSYDGDAQGKEEIDSILNKVEERMKELSQDSTGRVKRLPPIVRGGAIDRYWPTADGRLVEYDIDEVVYDEDSPYQNIKILHSKQFGNILILSGDVNLAESDLAYTRAIMGSGKEDYTGKDVLILGGGDGGILCEIVKLKPKMVTMVEIDQMVIDGCKKYMRKTCGDVLDNLKGDCYQVLIEDCIPVLKRYAKEGREFDYVINDLTAVPISTSPEEDSTWEFLRLILDLSMKVLKQDGKYFTQGNCVNLTEALSLYEEQLGRLYCPVEFSKEIVCVPSYLELWVFYTVWKKAKP [SMS]”, the “solubility in G1/S (log2)” value with HeLa Kyoto [1] is 0.398. Besides, the melting temperature was 56.6 °C in the series on HeLa Kyoto [2] (cell cycle stage: G1/S) and 56.5 °C with HeLa Kyoto [2] (cell cycle stage: mitosis). Besides, the “solubility change mitosis (log2)” value with HeLa Kyoto [3] is -0.166. Further, the thermal stability score with HeLa Kyoto [4] (setting [5]) is -2.98; with HeLa Kyoto [4] (cell cycle stage: mitosis), -1.47.
